How the values were obtained:
[1] = tested on: 33-mer immunodominant gluten (gliadin) peptide; experiment: chronoamperometry; conditions: RT (electrochemistry), pH 7.4, PSA-1, B4 and truncations: 1x PBS (10 mM phosphate, 154 mM NaCl), 24nt variants: 10 mM Tris-HCl, 150 mM NaCl, 5 mM KCl
[2] = tested on: 33-mer immunodominant gluten (gliadin) peptide; experiment: SPR; conditions: RT (electrochemistry), pH 7.4, PSA-1, B4 and truncations: 1x PBS (10 mM phosphate, 154 mM NaCl), 24nt variants: 10 mM Tris-HCl, 150 mM NaCl, 5 mM KCl
[3] = tested on: collagen XI 10-mer peptide (non-helical C-telopeptide fragment); experiment: chronoamperometry (magnetic beads); conditions: RT (electrochemistry), pH 7.4, PSA-1, B4 and truncations: 1x PBS (10 mM phosphate, 154 mM NaCl), 24nt variants: 10 mM Tris-HCl, 150 mM NaCl, 5 mM KCl
[4] = target: T1, prostate specific antigen (PSA) (human, UniProt P07288 25-261); experiment: chronoamperometry; RT (electrochemistry), pH 7.4; PSA-1, B4 and truncations: 1x PBS (10 mM phosphate, 154 mM NaCl); 24nt variants: 10 mM Tris-HCl, 150 mM NaCl, 5 mM KCl, 5 mM MgCl2; Gli1 series: 50 mM Tris-HCl, 250 mM NaCl, 5 mM MgCl2; conditions: protein: native; label: 5' 6FAM
T1 sequence (P07288 25-261): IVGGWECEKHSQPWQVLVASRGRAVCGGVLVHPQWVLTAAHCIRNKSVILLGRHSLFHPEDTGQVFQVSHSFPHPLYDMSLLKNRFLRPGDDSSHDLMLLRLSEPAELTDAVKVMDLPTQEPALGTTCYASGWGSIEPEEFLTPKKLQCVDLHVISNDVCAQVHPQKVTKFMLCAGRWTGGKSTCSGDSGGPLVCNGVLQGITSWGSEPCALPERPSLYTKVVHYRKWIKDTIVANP

[5] = target: T1, prostate specific antigen (PSA); experiment: SPR; RT (electrochemistry), pH 7.4; PSA-1, B4 and truncations: 1x PBS (10 mM phosphate, 154 mM NaCl); 24nt variants: 10 mM Tris-HCl, 150 mM NaCl, 5 mM KCl, 5 mM MgCl2; Gli1 series: 50 mM Tris-HCl, 250 mM NaCl, 5 mM MgCl2; conditions: protein: native; label: 5' 6FAM
[6] = target: T1, prostate specific antigen (PSA); experiment: SPR; 5 mM MgCl2; RT (electrochemistry), pH 7.4; PSA-1, B4 and truncations: 1x PBS (10 mM phosphate, 154 mM NaCl); 24nt variants: 10 mM Tris-HCl, 150 mM NaCl, 5 mM KCl, 5 mM MgCl2; Gli1 series: 50 mM Tris-HCl, 250 mM NaCl, 5 mM MgCl2; conditions: protein: native; label: 5' 6FAM; hairpin
[7] = target: T1, prostate specific antigen (PSA); experiment: chronoamperometry; 5 mM MgCl2; RT (electrochemistry), pH 7.4; PSA-1, B4 and truncations: 1x PBS (10 mM phosphate, 154 mM NaCl); 24nt variants: 10 mM Tris-HCl, 150 mM NaCl, 5 mM KCl, 5 mM MgCl2; Gli1 series: 50 mM Tris-HCl, 250 mM NaCl, 5 mM MgCl2; conditions: protein: native; label: 5' 6FAM; hairpin

In the case of “CTAGGCGAAATATAGCTACAACTGTCTGAAGGCACCCAAT [Gli1]”, the Kd [1] is reported as 136 nM and the Kd [2] is reported as 155 nM.

“TTTTTATTCAGGGCACCTGGAACGACGCGTCGGCT [B4T(11-40)]” gave a Kd [3] of 44 nM.

“CTAGGCGAAATATAGCTACAACTGTCTGA [Gli1T(1-29)]” showed a Kd [1] of 86 nM and a Kd [2] of 71 nM.

Work on “TTTTTGACGCAAGAAATTCAGGGCACCTGGAACGACGCGTCGGCT [B4]” yielded a Kd [3] of 147 nM.

For TTTTTGGACGGTTGCGCTATATTTAACCAAAAGTCTGGATTAACA (ssDNA) [PSA-1], the Kd [4] was 348 ± 58 nM and the Kd [5] was 125 ± 21 nM.

TTTTTTATTTAACCAAAAGTCTGGATTAACA (ssDNA) [PSA-1T(15-40)] showed a Kd [4] of 111 ± 9 nM and a Kd [5] of 130 ± 25 nM.

Work on TTTTTAATTAAAGCTCGCCATCAAATAGCTTT (ssDNA) [5Ts-24nt-3Ts (deltaPSap4#5)] yielded a Kd [6] of 232 ± 4 nM and a Kd [7] of 152 ± 9 nM.

TTTTTAATTAAAGCTCGCCATCAAATAGC (ssDNA) [5Ts-24nt] showed a Kd [6] of 545 ± 24 nM and a Kd [7] of 460 ± 64 nM.

Reference: PMC12261273, “Refinement and Truncation of DNA Aptamers Based on Molecular Dynamics Simulations: Computational Protocol and Experimental Validation”
